Laboratory results reported in patent publication US7494767B2, “Assay for TSG101 as inhibitors of HIV production” (priority 2001, dated 2009).

Columns and labels:
[1] = system: viral protein (Gag); assay: Intracellular steady-state level of viral proteins in COS-1 cells (S1 and P1 fractions, Western blot, anti-CA); assay type: cell-based, HIV-1; conditions: for Gag Δp6 in S1 and P1 fractions: gagΔp6, same conditions; for viral protein in P1 fraction / viral protein in S1 fraction: wild-type gag, pol, rev, conditions of greatest inhibition
[2] = system: HIV-1 particles; assay: Release of HIV-1 virus-like particles from transfected COS-1 cells (Western blot of particles, anti-CA); assay type: cell-based; conditions: for amount of mature CA in released virus, of the control (0 μM pa) level: COS-1 cells with rev, pol and wild-type gag
[3] = biological target: T1, Tsg101 (Homo sapiens, UniProt Q99816); conditions: N- or C-terminally deleted Pr55^Gag fused to GAL4 DNA-binding domain; FIG. 1A
T1 construct: expressed in transfected cells; host or cells: Saccharomyces cerevisiae Y153
Description: 2-hybrid assay. […] Vectors pGBT9 and pGAD424 encoding PR55^Gag or Tsg101 sequences as GAL4 activation and binding domain fusion proteins were transformed into Saccharomyces cerevisiae Y153 using procedures previously described (Bartel, P. L. & Fields, S., 1995, Methods Enzymol. 254,241-263). Briefly, interactions were detected using a selection for Trp and Leu prototrophy followed by quantitative assay for LacZ activation. […] Mapping of the interacting domain was performed using vectors encoding the DNA-binding or activation domain of the yeast GAL4 transcriptional activator protein fused to truncations, deletions or point mutations of the proteins. […] Expression of all GAL4 fusions was checked by analysis of yeast cell extracts by SDS-gel electrophoresis and Western blotting with an antibody directed against the GAL4 binding domain (Upstate Biochemical) and GAL4 transactivation domain (Santa Cruz).

[4] = increasing expression, pa 1 and 5 μM, wild-type gag

Row | Molecule | Gag Δp6 in S1 and P1 fractions [1] | viral protein in P1 fraction [1] | viral protein in S1 fraction [1] | Gag processing in released particles [2, 4] | release of virus particles [2, 4] | LacZ reporter gene activation signal [3] | amount of mature CA in released virus, of the control (0 μM pa) level ([2]; 1 μM pa) | amount of mature CA in released virus, of the control (0 μM pa) level ([2]; 5 μM pa) | release of immature particles containing GagΔp6 ([2]; Tsg101 overexpression, pa 0, 1, 5 μM, gagΔp6)
1 | SD5-59 (protein, left off: small tags and cut ends) MAVSESQLKKMVSKYKYRDLTVRETVNVITLYKDLKPVLDSYVFNDGSSRELMNLTGTIPVPYRGNTYNIPICLWLLDTYPYNPPICFVKPTSSMTIKTGKHVDANGKIYLPYLHEWKHPQSDLLGLIQVMIVVFGDEPPVFSRPISASYPPYQATGPPNTSYMPGMPGGISPYPSGYPPNPSGYPGCPYPPGGPYPATTSSQYPSQPPVTTVGPSRDGTISEDTIRASLISAVSDKLRWRMKEEMDRAQAELNALKRTEEDLKKGHQKLEEMVTRLDQEVAEVDKNIELLKKKDEELSSALEKMENQSENNDIDEVIIPTAPLYKQILNLYAEENAIEDTIFYLGEGGVIDLDVFLKHVRLLSRKQFQLRALMQKARKTAGLSDLY | accumulated at higher levels in both fractions | no protein was found | detectable levels of viral protein | accumulation of particle-associated uncleaved Gag precursor | permitted release of virus particles |  |  |  | 
2 | p1-p6: p1-p6 region of HIV-1 Pr55Gag fused to GAL4 DNA-binding domain (protein) MKLLSSIEQACDICRLKKLKCSKEKPKCAKCLKNNWECRYSPKTKRSPLTRAHLTEVESRLERLEQLFLLIFPREDLDMILKMDSLQDIKALLTGLFVQDNVNKDAVTDRLASVETDMPLTLRQHRISATSSSEESSNKGQRQLTVSGKIWPSYKGRPGNFLQSRPEPTAPPFLQSRPEPTAPPEESFRSGVETTTPPQKQEPIDKELYPLTSLRSLFGNDPSSQ |  |  |  |  |  | retained |  |  | 
3 | pIND-h-Tsg101-FLAG: FLAG-tagged wild-type human Tsg101 overexpressed from an ecdysone-inducible plasmid (protein, left off: small tags and cut ends, FLAG-tagged wild-type human Tsg101 overexpressed from an ecdysone-inducible plasmid) MAVSESQLKKMVSKYKYRDLTVRETVNVITLYKDLKPVLDSYVFNDGSSRELMNLTGTIPVPYRGNTYNIPICLWLLDTYPYNPPICFVKPTSSMTIKTGKHVDANGKIYLPYLHEWKHPQSDLLGLIQVMIVVFGDEPPVFSRPISASYPPYQATGPPNTSYMPGMPGGISPYPSGYPPNPSGYPGCPYPPGGPYPATTSSQYPSQPPVTTVGPSRDGTISEDTIRASLISAVSDKLRWRMKEEMDRAQAELNALKRTEEDLKKGHQKLEEMVTRLDQEVAEVDKNIELLKKKDEELSSALEKMENQSENNDIDEVIIPTAPLYKQILNLYAEENAIEDTIFYLGEALRRGVIDLDVFLKHVRLLSRKQFQLRALMQKARKTAGLSDLY | detected in both S1 and P1 fractions | no detectable viral protein | no detectable viral protein |  |  |  | ~60% | ~30% | not significantly affected
